# Data reported in patent publication US20090092631A1 (TRIPEP, published 2009).
# Values joined by “and” are separate entries in the source; they are usually repeats but may differ in a detail not shown here. Equal entries are not always repeated. Ends that are not written are not given here. * marks the point of attachment. Galα1‑3Galβ1‑O(CH2)3NH2 = OC[C@H]1O[C@H](O[C@H]2[C@@H](O)[C@@H](CO)O[C@@H](OCCCN*)[C@@H]2O)[C@H](O)[C@@H](O)[C@H]1O
# Key:
# [1] = target: T1, gp120 of HIV-1 IIIB virus (HIV-1 IIIB, UniProt P04578 33-856); experiment: cell-based or functional assay
# [2] = target: T1, gp120 of HIV-1 IIIB virus; experiment: cell-based or functional assay; remark: listed apart in the source
# [3] = target: T2, LAI gp120 molecule (PerkinElmer, Denmark) (HIV-1 LAI, UniProt P03377 33-516); experiment: ELISA on coated LAI gp120, detection with 1:10 or 1:20 human serum
# T2 construct: domain: gp120; also called gp120 from LAI virus
Binder,"decrease in the infectivity (RT activity day 11, H9 cells, HIV IIIB) at 0.01 µg/ml glycopeptide (approximately 5 nM) with 5 or 10% human serum [1] [%]","neutralization (RT activity day 11, H9 cells, HIV IIIB) at 1 µg/ml glycopeptide with 5 or 10% human serum [1] [%]","neutralization (inhibition of syncytia formation, U87 CD4+ CXCR4+ cells), peptide without serum [1] [%]","percentage of neutralization of the virus (plaque assay, U87 CD4 cells, HIV-1 IIIB); glycosylated Sp. exchanger 0.1 ug/ml & 1:10 dilution human serum [2]","percentage of neutralization of the virus (plaque assay, U87 CD4 cells, HIV-1 IIIB); glycosylated Sp. exchanger 0.1 ug/ml & 1:20 dilution human serum [2]","percentage of neutralization of the virus (plaque assay, U87 CD4 cells, HIV-1 IIIB); glycosylated Sp. exchanger 0.1 ug/ml, no serum [2]","percentage of neutralization of the virus (plaque assay, U87 CD4 cells, HIV-1 IIIB); glycosylated Sp. exchanger 1 ug/ml & 1:10 dilution human serum [2]","percentage of neutralization of the virus (plaque assay, U87 CD4 cells, HIV-1 IIIB); glycosylated Sp. exchanger 1 ug/ml & 1:20 dilution human serum [2]","percentage of neutralization of the virus (plaque assay, U87 CD4 cells, HIV-1 IIIB); glycosylated Sp. exchanger 10 ug/ml & 1:10 dilution human serum [2]","percentage of neutralization of the virus (plaque assay, U87 CD4 cells, HIV-1 IIIB); glycosylated Sp. exchanger 10 ug/ml & 1:20 dilution human serum [2]",lowest glycopeptide concentration at which binding was detected [3],"percentage of neutralization of the virus (plaque assay, U87 CD4 cells, HIV-1 IIIB); CD4 peptide alone 0.1 ug/ml [2]","percentage of neutralization of the virus (plaque assay, U87 CD4 cells, HIV-1 IIIB); CD4 peptide alone 1 ug/ml [2]","percentage of neutralization of the virus (plaque assay, U87 CD4 cells, HIV-1 IIIB); CD4 peptide alone 10 ug/ml [2]","percentage of neutralization of the virus (plaque assay, U87 CD4 cells, HIV-1 IIIB); glycosylated Sp. exchanger 1 ug/ml, no serum [2]","percentage of neutralization of the virus (plaque assay, U87 CD4 cells, HIV-1 IIIB); glycosylated Sp. exchanger 10 ug/ml, no serum [2]"
"DKILGNQGSFLTKGPS (not fully specified (residue 1), also called GP3; glycopeptide 3) [Gal-CD4-102]",> 50,90,< 40,0.5 fraction (0.3 equals 30%),< 0.3 fraction (0.3 equals 30%),< 0.3 fraction (0.3 equals 30%),0.42 fraction (0.3 equals 30%),< 0.3 fraction (0.3 equals 30%),0.6 fraction (0.3 equals 30%),< 0.3 fraction (0.3 equals 30%),~5 nM and 10 ng/ml,–,–,–,–,–
"QFHWKNSNQIKILGN [CD4 peptide alone, Seq. Id. No. 4 (non-glycosylated)]",–,–,< 40,–,–,–,–,–,–,–,–,< 0.3 fraction (0.3 equals 30%),< 0.3 fraction (0.3 equals 30%),< 0.3 fraction (0.3 equals 30%),–,–
"DKLNDRADSRRSLWDQ (not fully specified (residue 1), also called GP6; glycopeptide 6) [Gal-CD4-105]",–,–,< 40,0.76 fraction (0.3 equals 30%),0.71 fraction (0.3 equals 30%),< 0.3 fraction (0.3 equals 30%),0.75 fraction (0.3 equals 30%),0.75 fraction (0.3 equals 30%),0.78 fraction (0.3 equals 30%),0.74 fraction (0.3 equals 30%),10 ng/ml and ~5 nM,–,–,–,< 0.3 fraction (0.3 equals 30%),< 0.3 fraction (0.3 equals 30%)
"QGSFLTKGPSKLNDR [CD4 peptide alone, Seq. Id. No. 7 (non-glycosylated)]",–,–,< 40,–,–,–,–,–,–,–,–,< 0.3 fraction (0.3 equals 30%),< 0.3 fraction (0.3 equals 30%),< 0.3 fraction (0.3 equals 30%),–,–
"KLNDRADSRRSLWDQ [non-glycosylated CD4 peptide, Seq. Id. No. 9]",–,–,< 40,–,–,–,–,–,–,–,–,–,–,–,–,–
"DNSNQIKILGNQGSFL (not fully specified (residue 1), also called GP2; glycopeptide 2) [Gal-CD4-101]",–,–,< 40,< 0.3 fraction (0.3 equals 30%),< 0.3 fraction (0.3 equals 30%),< 0.3 fraction (0.3 equals 30%),0.39 fraction (0.3 equals 30%),0.32 fraction (0.3 equals 30%),0.49 fraction (0.3 equals 30%),0.429 fraction (0.3 equals 30%),~5 nM and 10 ng/ml,–,–,–,< 0.3 fraction (0.3 equals 30%),< 0.3 fraction (0.3 equals 30%)
"KILGNQGSFLTKGPS [CD4 peptide alone, Seq. Id. No. 6 (non-glycosylated)]",–,–,< 40,–,–,–,–,–,–,–,–,< 0.3 fraction (0.3 equals 30%),< 0.3 fraction (0.3 equals 30%),< 0.3 fraction (0.3 equals 30%),–,–
"TKGPSKLNDRADSRR [non-glycosylated CD4 peptide, Seq. Id. No. 8]",–,–,< 40,–,–,–,–,–,–,–,–,–,–,–,–,–
"NSNQIKILGNQGSFL [CD4 peptide alone, Seq. Id. No. 5 (non-glycosylated)]",–,–,< 40,–,–,–,–,–,–,–,–,< 0.3 fraction (0.3 equals 30%),< 0.3 fraction (0.3 equals 30%),< 0.3 fraction (0.3 equals 30%),–,–
D(Galα1‑3Galβ1‑O(CH2)3NH2)QGSFLTKGPSKLNDR (also called GP4; glycopeptide 4) [Gal-CD4-103],> 50,90,< 40,0.439 fraction (0.3 equals 30%),< 0.3 fraction (0.3 equals 30%),< 0.3 fraction (0.3 equals 30%),0.461 fraction (0.3 equals 30%),< 0.3 fraction (0.3 equals 30%),0.454 fraction (0.3 equals 30%),< 0.3 fraction (0.3 equals 30%),10 ng/ml and ~5 nM,–,–,–,< 0.3 fraction (0.3 equals 30%),< 0.3 fraction (0.3 equals 30%)
D(Galα1‑3Galβ1‑O(CH2)3NH2)QFHWKNSNQIKILGN (also called GP1; glycopeptide 1) [Gal-CD4-100],–,–,< 40,0.48 fraction (0.3 equals 30%),0.47 fraction (0.3 equals 30%),< 0.3 fraction (0.3 equals 30%),0.48 fraction (0.3 equals 30%),0.47 fraction (0.3 equals 30%),0.55 fraction (0.3 equals 30%),0.48 fraction (0.3 equals 30%),~5 nM and 10 ng/ml,–,–,–,< 0.3 fraction (0.3 equals 30%),< 0.3 fraction (0.3 equals 30%)
"DTKGPSKLNDRADSRR (not fully specified (residue 1), also called glycopeptide 5) [Gal-CD4-104]",> 50,90,< 40,0.778 fraction (0.3 equals 30%),0.701 fraction (0.3 equals 30%),–,0.821 fraction (0.3 equals 30%),0.667 fraction (0.3 equals 30%),0.83 fraction (0.3 equals 30%),0.642 fraction (0.3 equals 30%),10 ng/ml and ~5 nM,–,–,–,0.548 fraction (0.3 equals 30%),0.552 fraction (0.3 equals 30%)
